Measurements reported in patent US20160052996A1 (NEURIMMUNE, published 2016).

T1: JCV VP2 protein (Bioclone Inc) (JC virus (JCV), UniProt P03095 1-344)
T1 sequence (looked up): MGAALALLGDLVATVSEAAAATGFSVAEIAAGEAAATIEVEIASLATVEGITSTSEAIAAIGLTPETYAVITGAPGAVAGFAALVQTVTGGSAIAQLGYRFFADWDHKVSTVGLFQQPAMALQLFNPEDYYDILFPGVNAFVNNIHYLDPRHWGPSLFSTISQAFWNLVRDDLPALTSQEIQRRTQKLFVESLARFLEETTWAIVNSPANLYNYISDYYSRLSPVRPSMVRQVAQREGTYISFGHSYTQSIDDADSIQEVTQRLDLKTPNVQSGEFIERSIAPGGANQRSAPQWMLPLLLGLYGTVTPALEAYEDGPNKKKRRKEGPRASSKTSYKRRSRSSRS

T2: JCV VP3 protein (Bioclone Inc) (JC virus (JCV), UniProt P03095 120-344)
T2 sequence: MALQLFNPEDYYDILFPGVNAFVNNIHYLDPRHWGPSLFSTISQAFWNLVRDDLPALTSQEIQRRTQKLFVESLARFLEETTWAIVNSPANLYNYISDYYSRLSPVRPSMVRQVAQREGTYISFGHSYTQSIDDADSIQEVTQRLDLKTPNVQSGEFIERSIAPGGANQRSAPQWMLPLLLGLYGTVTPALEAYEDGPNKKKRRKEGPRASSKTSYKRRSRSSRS

B1: NI-307.58C7 (antibody, V domains shown)
VH: EVQLVESGGGLVKPGGSLRLSCAASGFTFSDYYVNWIRQAPGKGLEWVACISSSGRTIHYADSVKGRFTISRDNAKNSLYLQMNSLRAEDTAFYYCARDLDKAATGRPYFDYWGQGTLVTVSS
VL: not shown
B2: NI-307.25G10 (antibody, V domains shown)
VH: EVQLVESGGGLVQPGGSLRLSCVASGIIFKDYDFHWVRQVKEKGLEWVSAIGTAGDPYYAASVKGRFTVSRENGKNSVYLRMNNVGAGDTALYYCTSGNYFDRGSFRPSAFDMWGQGTMVTVSS
VL: EIVLTQSPGTLSLSPGERATLSCWASQSVSSNYLAWYQHKPGQAPRLLIFRASRRATDIPERFSAGGSGTDFTLTISRLEAEDSAVYYCQEYGSAPPASITFGQGTRLEIK
B3: NI-307.98D3 (antibody, V domains shown)
VH: EVQLVESGGGVVQPGRSLRLSCAASGFTFSSSAMHWVRQAPGKGLEWVAVISYDGNNQLYADSVKGRLTISRDNSKNALYLQLNSLRTEDTAVYFCARDGGGYSFGTYFFDFWGQGTLVTVSS
VL: DIQMTQSPSSLSASVGERVTITCRASQRISNYLNWYQQKPGKAPKLLIYAASTLQSGVPSRFSGSGSGTDFTLTISSLQPEDFATYYCQQSYSSPPTFGPGTKVDIK
B4: NI-307.19F8 (antibody, V domains shown)
VH: EVQLVESGGGLVKPGGSLRLSCAASGFTFSSYYMNWVRQAPGKGLEWVSSISSSSSYIYYADSVKGRFTISRDNAKNSLYLQMNSLTAEDTAVYYCARDPRLQLWFMFDYWGQGTLVTVSS
VL: QPVLTQPPSASASLGASVTLTCTLSSGYSNYKVDWYQQRPGEGPRFVMRVGTGGIVGSKGDGIPDRFSVLGSGLNRYLTIKDIQEEDESDYHCGADHGSGSNFVYVFGTGTKVTVL
B5: NI-307.26E10 (antibody, V domains shown)
VH: EVQLVESGGGLVLPGGSLRLSCAVSGFTVRNEYMRWARQAPGRGLEWVSVIYRDGQTHHADTVKGRFDVSKDTSKNTMYLQMHNLRVDDTAIYYCARGHYGPWGQGTLVTVSS
VL: DIQMTQSPSTLPASVGDRVTITCRASQSINNWLAWYQQKPGKAPNLLIYDASNLETGVPSRFSGSGSGTEFTLTISSLQPDDFATYYCQQYNSHSHTWTFGQGTKVEIK

What was measured:
[1] = molecular target: T3, VP1 GCN (N74S R75K T128A L158V K345R Q350deletion T351deletion) (JC virus (JCV), UniProt P03089 1-354); assay: flow cytometry, transfected 293TT cells
T3 construct: whole, on cells

JCV VP1 VLP [2] = molecular target: T4, JCV VP1 VLP (JC virus (JCV), Mad-1 strain, UniProt P03089 1-354); assay: direct ELISA
T4 construct: also called JCV VP1 VLPs; JCV VP1 (coating with reassociation buffer)

BSA (Sigma-Aldrich) = molecular target: T5, BSA (Sigma-Aldrich) (bovine, UniProt P02769 25-607); assay: direct ELISA
T5 construct: also called bovine serum albumin
T5 sequence (P02769 25-607 limits assumed): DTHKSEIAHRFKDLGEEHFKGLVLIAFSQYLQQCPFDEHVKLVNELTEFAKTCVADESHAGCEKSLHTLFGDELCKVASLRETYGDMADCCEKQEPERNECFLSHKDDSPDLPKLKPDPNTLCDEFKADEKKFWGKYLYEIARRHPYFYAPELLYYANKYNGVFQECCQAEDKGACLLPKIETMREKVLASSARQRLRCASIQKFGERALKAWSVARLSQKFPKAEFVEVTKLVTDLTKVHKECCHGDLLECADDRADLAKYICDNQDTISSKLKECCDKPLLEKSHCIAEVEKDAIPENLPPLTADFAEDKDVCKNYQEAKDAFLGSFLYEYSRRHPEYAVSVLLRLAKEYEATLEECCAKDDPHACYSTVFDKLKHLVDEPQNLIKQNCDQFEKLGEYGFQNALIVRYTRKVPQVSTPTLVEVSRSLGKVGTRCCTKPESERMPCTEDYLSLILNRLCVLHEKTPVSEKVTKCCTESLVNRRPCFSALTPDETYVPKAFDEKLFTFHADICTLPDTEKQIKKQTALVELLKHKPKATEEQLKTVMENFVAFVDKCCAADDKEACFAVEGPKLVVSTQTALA

[3] = molecular target: T1, JCV VP2 protein (Bioclone Inc); assay: direct ELISA, antigens coated at 1 µg/mL; bar groups labelled 100 nM, 20 nM, 4 nM, 0.8 nM
[4] = molecular target: T2, JCV VP3 protein (Bioclone Inc); assay: as above
[5] = molecular target: JCV (JC virus produced by infected SVG-A cells) (JC virus (JCV), UniProt P03089 1-354); assay: cell-based or functional assay
JCV VP1 VLP [6] = molecular target: T4, JCV VP1 VLP; assay: direct ELISA, plate coated with antigen at 5 µg/ml in reassociation buffer (VLP); EC50 by non-linear regression (GraphPad Prism)
JCV VP1 VLP [7] = molecular target: T4, JCV VP1 VLP; assay: as above; remark: listed apart in the source

| Binder | binding result [1] | EC50 (JCV VP1 VLP [2]) [nM] | binding result (BSA (Sigma-Aldrich)) | binding result [3] | binding result [4] | IC50 of neutralization of the JCV infection of SVG-A cells [5] [ng/mL] | EC50 (JCV VP1 VLP [6]) [nM] | EC50 (JCV VP1 VLP [7]) [nM] |
| --- | --- | --- | --- | --- | --- | --- | --- | --- |
| B1 | binds | – | – | – | – | – | – | – |
| B2 | – | 0.509 | no binding | no binding (tested: 100 nM) | no binding (tested: 100 nM) | – | – | – |
| B3 | – | – | – | – | – | 0.8 | 0.00057 | – |
| B4 | – | – | no binding | no binding (tested: 100 nM) | no binding (tested: 100 nM) | – | – | 6.68 |
| B5 | – | 14.9 | no binding | no binding (tested: 100 nM) | no binding (tested: 100 nM) | – | – | – |
